Measurements from paper PMC6856128 (Scientific Reports, 2019).

Test system: O=S(O)(O)=S
Test: purified protein
Settings: pH 8.0; 37.0 °C

Substance: CysA2 (Mycobacterium tuberculosis H37Rv)
- Km: 2970 ± 50 µM
